For one substance, Kd, koff and kon results are on record in article PMC9006895.

pKd: −log10 of the molar value.

Test [1] addresses flotillin 2-MBP (Laodelphax striatellus). The test can be described thus: BLI; Octet RED96e; biotinylated flotillin 2-MBP (5 μM) loaded on streptavidin biosensors; NP-GST 0 to 4,000 nM in 1× PBS; 25°C; buffer 20 mM NaH2PO4, 150 mM NaCl, 0.05% Tween 20.
Test [2] has the same target. The test can be described thus: MST; Monolith NT.115; flotillin 2-MBP labeled with NHS-495 held at 10 μM, NP-GST diluted from 17.5 μM to 0.0417 nM; 25°C.

As for NP-GST (natural protein), in test [1], the pKd was 6.21, the koff worked out at 0.00382 s⁻¹ and the kon amounted to 6170 M⁻¹ s⁻¹. Further, the negative logarithm of the Kd (pKd) in test [2] was 6.10.
